Measurements as given in patent US7985715B2 (priority 2004, dated 2011).
Ends that are not written are not given here.

Test system: Anti-FLAG® M2 monoclonal antibody
Assay: not given
Type: binding
Settings: not given

| Molecule | binding of anti-FLAG Mab in the microarray (fluorescence) |
| --- | --- |
| MET-ASP-TYR-LYS-ASP-HIS-ASP-GLY-ASP-TYR-LYS-ASP-HIS-ASP-ILE-ASP-TYR-LYS-ASP-ASP-ASP-ASP-LYS [3×FLAG® peptide] | bound |

Biological target: fluorescently labeled Anti-FLAG® M2 monoclonal antibody (Sigma)
Assay: fluorescence microarray: peptides immobilized on epoxide slide, probed with fluorescently labeled antibody
Settings: not given

| Molecule | Mean Fluorescence Units (fluorescence units) |
| --- | --- |
| artificial receptor No. 46 (n=3): peptide building blocks RM RY QH (designed binder, not fully specified (N-terminus)) peptide 1: KAGAGRGM-NHMe peptide 2: Ac-KAGAGRGY-NHMe peptide 3: Ac-KAGAGQGH-NHMe | 39500 |
| artificial receptor No. 71 (n=3): peptide building blocks RM MY TY (designed binder, not fully specified (N-terminus)) peptide 1: KAGAGRGM-NHMe peptide 2: Ac-KAGAGMGY-NHMe peptide 3: Ac-KAGAGTGY-NHMe | 47800 |
| artificial receptor No. 15 (n=2): peptide building blocks RM MY (designed binder) peptide 1: Ac-KAGAGRGM-NHMe peptide 2: Ac-KAGAGMGY-NHMe | 64600 |
| artificial receptor No. 72 (n=3): peptide building blocks RM MY DD (designed binder, not fully specified (N-terminus)) peptide 1: KAGAGRGM-NHMe peptide 2: Ac-KAGAGMGY-NHMe peptide 3: Ac-KAGAGDGD-NHMe | 52100 |
| artificial receptor No. 49 (n=3): peptide building blocks RM RY HM (designed binder, not fully specified (N-terminus)) peptide 1: KAGAGRGM-NHMe peptide 2: Ac-KAGAGRGY-NHMe peptide 3: Ac-KAGAGHGM-NHMe | 39800 |
| artificial receptor No. 65 (n=3): peptide building blocks RM QY MY (designed binder, not fully specified (N-terminus)) peptide 1: KAGAGRGM-NHMe peptide 2: Ac-KAGAGQGY-NHMe peptide 3: Ac-KAGAGMGY-NHMe | 40900 |
| KAGAGRGM-NHMe (not fully specified (N-terminus)) [artificial receptor No. 1 (n=1): peptide building block RM] | 47700 |
| artificial receptor No. 40 (n=2): peptide building blocks HM MY (designed binder) peptide 1: Ac-KAGAGHGM-NHMe peptide 2: Ac-KAGAGMGY-NHMe | 46800 |
| artificial receptor No. 10 (n=2): peptide building blocks RM TY (designed binder, not fully specified (N-terminus)) peptide 1: KAGAGRGM-NHMe peptide 2: Ac-KAGAGTGY-NHMe | 35100 |

The remaining lines, values ahead:

| Mean Fluorescence Units (fluorescence units) | Molecule |
| --- | --- |
| 64600 | KAGAGMGY-NHMe (not fully specified (N-terminus)) [artificial receptor No. 7 (n=1): peptide building block MY] |
| 47600 | artificial receptor No. 133 (n=4): peptide building blocks RM RY QH MY (designed binder, not fully specified (N-terminus)) peptide 1: KAGAGRGM-NHMe peptide 2: Ac-KAGAGRGY-NHMe peptide 3: Ac-KAGAGQGH-NHMe peptide 4: Ac-KAGAGMGY-NHMe |
| 47800 | artificial receptor No. 61 (n=3): peptide building blocks RM QM MY (designed binder) peptide 1: Ac-KAGAGRGM-NHMe peptide 2: Ac-KAGAGQGM-NHMe peptide 3: Ac-KAGAGMGY-NHMe |
| 65000 | artificial receptor No. 278 (n=5): peptide building blocks RM RY QM MY TY (designed binder, not fully specified; N-terminal acetyl (Ac-HN-); C-terminal methyl amide (-C(O)-NH-CH3)) peptide 1: KAGAGRGM peptide 2: KAGAGRGY peptide 3: KAGAGQGM peptide 4: KAGAGMGY peptide 5: KAGAGTGY |
| 34500 | artificial receptor No. 68 (n=3): peptide building blocks RM HM MY (designed binder, not fully specified (N-terminus)) peptide 1: KAGAGRGM-NHMe peptide 2: Ac-KAGAGHGM-NHMe peptide 3: Ac-KAGAGMGY-NHMe |
| 57200 | artificial receptor No. 89 (n=3): peptide building blocks RY HM MY (designed binder) peptide 1: Ac-KAGAGRGY-NHMe peptide 2: Ac-KAGAGHGM-NHMe peptide 3: Ac-KAGAGMGY-NHMe |
| 53500 | artificial receptor No. 22 (n=2): peptide building blocks RY MY (designed binder) peptide 1: Ac-KAGAGRGY-NHMe peptide 2: Ac-KAGAGMGY-NHMe |
| 39800 | artificial receptor No. 69 (n=3): peptide building blocks RM HM TY (designed binder, not fully specified (N-terminus)) peptide 1: KAGAGRGM-NHMe peptide 2: Ac-KAGAGHGM-NHMe peptide 3: Ac-KAGAGTGY-NHMe |
| 32500 | artificial receptor No. 70 (n=3): peptide building blocks RM HM DD (designed binder, not fully specified (N-terminus)) peptide 1: KAGAGRGM-NHMe peptide 2: Ac-KAGAGHGM-NHMe peptide 3: Ac-KAGAGDGD-NHMe |
| 54400 | artificial receptor No. 50 (n=3): peptide building blocks RM RY MY (designed binder, not fully specified (N-terminus)) peptide 1: KAGAGRGM-NHMe peptide 2: Ac-KAGAGRGY-NHMe peptide 3: Ac-KAGAGMGY-NHMe |
| 32600 | artificial receptor No. 56 (n=3): peptide building blocks RM QH MY (designed binder) peptide 1: Ac-KAGAGRGM-NHMe peptide 2: Ac-KAGAGQGH-NHMe peptide 3: Ac-KAGAGMGY-NHMe |
| 46700 | artificial receptor No. 93 (n=3): peptide building blocks RY MY DD (designed binder) peptide 1: Ac-KAGAGRGY-NHMe peptide 2: Ac-KAGAGMGY-NHMe peptide 3: Ac-KAGAGDGD-NHMe |

Test system: Anti-FLAG® M2 monoclonal antibody
Assay: not given
Settings: cited from earlier work

| Molecule | binding by the commercially available antibody |
| --- | --- |
| ASP-TYR-LYS-ASP-ASP-ASP-ASP-LYS [FLAG® peptide] | bound |
